Laboratory results published in patent publication US20090075925A1, “Methods and Compositions Related to APOBEC-1 Expression” (priority 2006, published 2009).

Tests used:
apoB mRNA editing [1] = test: apoB mRNA editing in McArdle cells (ethanol, ACF wild type, mutants and isoforms); assay type: cell-based, rat; details: for effect of isoform expression on editing: HA-tagged, transfected McArdle cells
Experimental: McArdle RH7777 cells (ATCC Manassas, Va.) stably expressing HA epitope-tagged APOBEC-1 (Yang et al. J Biol Chem 272:27700-6 (1997)) were treated for 4 hours with 0.9% ethanol and fractionated into nuclear extracts (Van Mater et al. (1998)).
To calibrate the system cells were incubated in the presence of ethanol for 4 hours and the amount of edited apoB mRNA determined.
The overall expression and subcellular localization of epitope tagged ACF isoforms is established by western blotting of nuclear and cytoplasmic extracts (prepared using NE-PER system; Pierce). These biochemical studies are complemented by immunofluorescence microscopy of paraformaldehyde fixed cells reacted with epitope tag or ACF isoform-specific antibodies. In pilot experiments varying levels of HA-tagged ACF43 and ACF45 were expressed by transfecting differing amounts of cDNA into McArdle or McAPOBEC cells (FIGS. 35A & C, western blots). […] The above transient transfection scenarios can be recapitulated in ethanol treated cells to evaluate the affect of ACF isoform abundance on cells ability to respond to metabolic perturbation. […] ACF expression levels, subcellular localization and editing activity are determined from replicate experiments and the relative affects of overexpressing each isoform compared in the absence (negative control) or presence of ethanol and to the response seen in wild type cells (positive control).

apoB mRNA editing [2] = test: apoB mRNA editing in McAPOBEC cells transfected with ACF isoforms; assay type: cell-based, rat; details: HA-tagged
Description: The overall expression and subcellular localization of epitope tagged ACF isoforms is established by western blotting of nuclear and cytoplasmic extracts (prepared using NE-PER system; Pierce). These biochemical studies are complemented by immunofluorescence microscopy of paraformaldehyde fixed cells reacted with epitope tag or ACF isoform-specific antibodies. In pilot experiments varying levels of HA-tagged ACF43 and ACF45 were expressed by transfecting differing amounts of cDNA into McArdle or McAPOBEC cells (FIGS. 35A & C, western blots). The level of exogenously expressed HA-tagged APOBEC-1 in McAPOBEC cells was high and unaffected by ACF isoform expression (FIG. 35C). Sufficient endogenous ACF was expressed in McAPOBEC cells to support 61% editing (FIG. 35D, poisoned primer extension) given the level of APOBEC-1 overexpression (FIG. 35C). […] ACF43's facilitation of ACF64/65 binding to apoB mRNA enhanced editing activity only when APOBEC-1 abundance was not rate limiting (analogous to FIG. 34, insulin). […] ACF expression levels, subcellular localization and editing activity are determined from replicate experiments and the relative affects of overexpressing each isoform compared in the absence (negative control) or presence of ethanol and to the response seen in wild type cells (positive control).

B1: S154D: ACF64 with serine 154 to aspartic acid substitution (protein)
chain: MESNHKSGDGLSGTQKEAALRALVQRTGYSLVQENGQRKYGGPPPGWDTTPPERGCEIFIGKLPRDLFEDELIPLCEKIGKIYEMRMMMDFNGNNRGYAFVTFSNKQEAKNAIKQLNNYEIRNGRLLGVCASVDNCRLFVGGIPKTKKREEILDEMKKVTEGVVDVIVYPSAADKTKNRGFAFVEYESHRAAAMARRRLLPGRIQLWGHPIAVDWAEPEVEVDEDTMSSVKILYVRNLMLSTSEEMIEKEFNSIKPGAVERVKKIRDYAFVHFSNREDAVEAMKALNGKVLDGSPIEVTLAKPVDKDSYVRYTRGTGGRNTMLQEYTYPLSHVYDPTTTYLGAPVFYTPQAYAAIPSLHFPATKGHLSNRALIRTPSVRGAAGVRGLGGRGYLAYTGLGRGYQVKGDKRQDKLYDLLPGMELTPMNTISLKPQGVKLAPQILEEICQKNNWGQPVYQLHSAIGQDQRQLFLYKVTIPALASQNPAIHPFTPPKLSAYVDEAKRYAAEHTLQTLGIPTEGGDAGTTAPTATSATVFPGYAVPSATAPVSTAQLKQAVTLGQDLAAYTTYEVYPTFAVTTRGDGYGTF
enhancement of editing (apoB mRNA editing [1]; stable McArdle cell line): 67%

B2: ACF43: 43 kDa ACF variant, SEQ ID NO:19 (protein)
chain: MESNHKSGDGLSGTQKEAALRALVQRTGYSLVQENGQRKYGGPPPGWDAAPPERGCEIFIGKLPRDLFEDELIPLCEKIGKIYEMRMMMDFNGNNRGYAFVTFSNKVEAKNAIKQLNNYEIRNGRLLGVCASVDNCRLFVGGIPKTKKREEILSEMKKVTEGVVDVIVYPSAADKTKNRGFAFVEYESHRAAAMARRKLLPGRIQLWGHGIAVDWAEPEVEVDEDTMSSVKILYVRNLMLSTSEEMIEKEFNNIKPGAVERVKKIRDYAFVHFSNRKDAVEAMKALNGKVLDGSPIEVTLAKPVDKDSYVRYTRGTGGRGTMLQGEYTYSLGQVYDPTTTYLGAPVFYAPQTYAAIPSLHFPATKGHLSNRAIIRAPSVRGAAGVRGLGGRGYLAYTGLGRGYQVKGDKREDKLYDILPGMELTPMNPVTLKPQGIKLAPQILEEICQKNNWGQPVYQLHSAIGQDQRQLFLYKITIPALASQNPAIHPFTPPKLSAFVDEAKTYAAEYTLQTLGIPTDGGDGTMATAAAAATAFPGYAVPNATAPVSAAQLKQAVTLGQDLAAYTTYEVYPTFAVTARGDGYGTF
effect of isoform expression on editing (apoB mRNA editing [1]): did not affect editing
effect of isoform expression on editing (61% editing without) (apoB mRNA editing [2]): stimulated editing activity

B3: ACF45: 45 kDa ACF variant, SEQ ID NO:18 (protein)
chain: MESNHKSGDGLSGTQKEAALRALVQRTGYSLVQENGQRKYGGPPPGWDAAPPERGCEIFIGKLPRDLFEDELIPLCEKIGKIYEMRMMMDFNGNNRGYAFVTFSNKVEAKNAIKQLNNYEIRNGRLLGVCASVDNCRLFVGGIPKTKKREEILSEMKKVTEGVVDVIVYPSAADKTKNRGFAFVEYESHRAAAMARRKLLPGRIQLWGHGIAVDWAEPEVEVDEDTMSSVKILYVRNLMLSTSEEMIEKEFNNIKPGAVERVKKIRDYAFVHFSNRKDAVEAMKALNGKVLDGSPIEVTLAKPVDKDSYVRYTRGTGGRGTMLQGEYTYSLGQVYDPTTTYLGAPVFYAPQTYAAIPSLHFPATKGHLSNRAIIRAPSVRGAAGVRGLGGRGYLAYTGLGRGYQVKGDKREDKLYDILPGMELTPMNPVTLKPQGIKLAPQILEEICQKNNWGQPVYQLHSAIGQDQRQLFLYKITIPALASQNPAIHPFTPPKLSAFVDEAKTYAAEYTLQTLGIPTDGGDGTMATAAAAATAFPGYAVPNATAPVSAAQLKQAVTLGQDLAAYTTYEVYPTFAVTARGDGYGTF
effect of isoform expression on editing (apoB mRNA editing [1]): inhibited editing over two-fold
effect of isoform expression on editing (61% editing without) (apoB mRNA editing [2]): had no affect

B4: ACF64: 64 kDa ACF variant, SEQ ID NO:1 (protein)
chain: MESNHKSGDGLSGTQKEAALRALVQRTGYSLVQENGQRKYGGPPPGWDAAPPERGCEIFIGKLPRDLFEDELIPLCEKIGKIYEMRMMMDFNGNNRGYAFVTFSNKVEAKNAIKQLNNYEIRNGRLLGVCASVDNCRLFVGGIPKTKKREEILSEMKKVTNEGVVDVIVYPSAADKTKNRGFAFVEYESHRTAAMARRKLLPGRIQLWGHGIAVDWAEPEVEVDEDTMSSVKILYVRNLMLSTSEEMIEKEFNNIKPGAVERVKKIRDYAFVHFSNRKDAVEAMKALNGKVLDGSPIEVTLAKPVDKDSYVRYTRGTGGRGTMLQGEYTYSLGQVYDPTTTYLGAPVFYAPQTYAAIPSLHFPATKGHLSNRAIIRAPSVRGAAGVRGLGGRGYLAYTGLGRGYQVKGDKREDKLYDILPGMELTPMNPVTLKPQGIKLAPQILEEICQKNNWGQPVYQLHSAIGQDQRQLFLYKITIPALASQNPAIHPFTPPKLSAFVDEAKTYAAENYTLQTLGIPTDGGDGTMATAAAAATAFPGYAVPNATAPVSAAQLKQAVTLGQDLAAYTNTYEVYPTFAVTARGDGYGTF
stimulation of editing by stable ectopic expression compared to untransfected McArdle cells (apoB mRNA editing [1]; stable cell line): 19%
further stimulation of editing on addition of ethanol (apoB mRNA editing [1]; stable cell line, ethanol): 3 fold
